From US20220249679A1, “BI-SPECIFIC BINDING AGENTS TARGETING SYNDECAN-1 AND FIBROBLAST GROWTH FACTOR RECEPTOR” (Mitsubishi Tanabe Pharma Corporation, priority 2018, published 2022)
Where “and” joins values, the source holds several entries; their conditions need not be identical. Identical values can stand only once.

Tests used:
[1] = biological target: Human CD138 His (human) (UniProt P18827); assay: SPR, summary table
[2] = biological target: Human CD138 His (human) (UniProt P18827); assay: SPR (BioRad Proteon), CD138 His immobilized, bivalent analyte fit

Sequence of Human CD138 His (human) (P18827 23-254 limits assumed): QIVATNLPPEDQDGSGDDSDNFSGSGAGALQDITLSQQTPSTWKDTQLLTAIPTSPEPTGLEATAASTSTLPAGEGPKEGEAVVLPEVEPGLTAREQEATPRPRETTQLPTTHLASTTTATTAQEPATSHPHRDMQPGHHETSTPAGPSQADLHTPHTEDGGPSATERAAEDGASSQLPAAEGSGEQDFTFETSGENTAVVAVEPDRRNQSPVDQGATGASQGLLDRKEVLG

Substance: mBT062 (antibody)
- Kd [1]: 2 nM
- Kd [2]: 1.95 nM and 2 nM
- koff [2]: 0.000666 s⁻¹
- kon [2]: 342000 M⁻¹ s⁻¹
